Results reported in patent US20260167717A1.

Molecular target: human carcinoembryonic antigen-related cell adhesion molecule 1 (CEACAM1) (human) (UniProt P13688)
Assay: cell-based or functional assay

Chain of UniProt P13688 (P13688 35-526): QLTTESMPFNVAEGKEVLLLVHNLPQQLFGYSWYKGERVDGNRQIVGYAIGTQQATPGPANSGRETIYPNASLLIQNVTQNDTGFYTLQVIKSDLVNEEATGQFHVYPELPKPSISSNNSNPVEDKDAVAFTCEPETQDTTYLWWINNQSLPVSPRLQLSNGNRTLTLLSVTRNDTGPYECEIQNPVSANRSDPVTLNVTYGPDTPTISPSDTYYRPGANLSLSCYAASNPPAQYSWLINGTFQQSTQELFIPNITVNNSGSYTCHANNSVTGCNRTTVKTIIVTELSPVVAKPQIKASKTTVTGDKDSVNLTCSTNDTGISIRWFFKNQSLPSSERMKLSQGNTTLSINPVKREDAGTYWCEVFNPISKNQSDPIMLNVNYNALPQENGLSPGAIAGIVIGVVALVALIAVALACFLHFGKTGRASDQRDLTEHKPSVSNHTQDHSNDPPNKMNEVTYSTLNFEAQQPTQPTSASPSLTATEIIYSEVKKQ

B1: CM24, humanized IgG4 anti-CEACAM1 monoclonal antibody (antibody, V domains shown)
VH: QVQLVQSGAEVKKPGASVKVSCKASGYAFTNNLIEWVRQAPGQGLEWIGVINPGSGDTNYNEKFKGRVTMTADKSISTAYMELSRLRSDDTAVYYCARGDYYGGFAVDYWGQGTTVTVSS
VL: DIQMTQSPSSLSASVGDRVTITCRTSQDIGNYLNWYQQKPGKAVKLLIYYTSRLHSGVPSRFSGSGSGTDYTLTISSLQPEDIATYFCQQGKSLPRTFGGGTKVEIKR
With B1 the % Inhibition of NET-induced migration (vs. isotype control), human NSCLC A549 was 82.7%, the % Inhibition of NET-induced migration (vs. isotype control), human PDAC AsPC-1 was 49.1% and the % Inhibition of NET-induced migration (vs. isotype control), human melanoma SKMEL-28 was 69.5%. The ADP-induced platelet aggregation, mean (ADP + CM24, 500 µg/ml, 30 min pretreat) was 721 AUC, the AUC of cell count, NET-induced migration of AsPC-1 cells (CM24 + NETs, 500 µg/ml) was 30600 AUC and the Mean AUC of cell count, NET-induced migration of A549 cells (CM24 + NETs, 500 µg/ml) was 6580 AUC. For the same binder, the Mean AUC of cell count, NET-induced migration of SKMEL-28 cells (CM24 + NETs, 500 µg/ml) was 2950 AUC, the Norm. AUC of cell count, NET-induced migration of A549 cells (CM24 + NETs, 500 µg/ml) was 2170 AUC and the Norm. AUC of cell count, NET-induced migration of AsPC-1 cells (CM24 + NETs, 500 µg/ml) was 9410 AUC. The Norm. AUC of cell count, NET-induced migration of SKMEL-28 cells (CM24 + NETs, 500 µg/ml) was 1640 AUC, the Percentage platelet aggregation at 30 min, fresh NETs 5 ng/µl, 500 µg/ml CM24 was -5.3% and the Percentage platelet aggregation at 30 min, fresh NETs 10 ng/µl, 500 µg/ml CM24 was 11.5%. The Platelet aggregation with fresh NETs 5 ng/µl, mean AUC (% aggregation versus time), 500 µg/ml CM24 was 179 AUC, the Platelet aggregation with fresh NETs 10 ng/µl, mean AUC (% aggregation versus time), 500 µg/ml CM24 was 377 AUC and the Reduction of NET-induced platelet aggregation vs. isotype control, 5 ng/µl fresh NETs was 70%. The Reduction of NET-induced platelet aggregation vs. isotype control, 10 ng/µl fresh NETs was 53%.
